Sequences and labels used below:
B1: Mut15-MMAE (antibody, V domains shown)
VH: QVQLVQSGAEVKKPGASVKVSCKASGYKFTGFVMHWVRQAPGQGLEWMGFINPYNDDIQSNERFRGRVTMTRDTSISTAYMELSRLRSDDTAVYYCARGNGLMFDGAYRFFDFWGQGTMVTVSS
VL: DIVMTQSPLSLPVTPGEPASISCRSSQRLVHSNGRTYLHWYLQKPGQSPRLLIYRVSNRFPGVPDRFSGSGSGTDFTLKISRVEAEDVGVYYCSQSTHVPYTFGQGTKLEIK
modifications: mc-vc-PAB-MMAE conjugated to reduced inter-chain cysteines; drug-antibody ratio 3.2
notes: also called MMAE-conjugated Mut15; MMAE conjugated Mut15
B2: Mut15 (antibody, V domains shown)
VH: B1 VH
VL: B1 VL
notes: Variant of hJOVI-1; IgG format; also called TRBC2 antibody Mut15; KFN variant Mut15
B3: Mut11-MMAE (antibody, V domains shown)
VH: B1 VH with K28T, F32Y, N100A, L102Y, M103N, G106A
VL: B1 VL with R35N
modifications: mc-vc-PAB-MMAE conjugated to reduced inter-chain cysteines; drug-antibody ratio 3.1
notes: also called MMAE-conjugated Mut11; MMAE conjugated Mut11
B4: Mut11 (antibody, V domains shown)
VH: B1 VH with K28T, F32Y, N100A, L102Y, M103N, G106A
VL: B1 VL with R35N
notes: Variant of hJOVI-1; IgG format; also called VH G106A; anti-TRBC1 antibody Mut11
B5: Mut3 (KFN) (antibody, V domains shown)
VH: B1 VH with L102Y, M103N
VL: B1 VL with R35N
notes: Variant of hJOVI-1; IgG format; also called anti-TRBC2 antibody KFN; anti-TRBC2 clone KFN
B6: hJOVI-1 (humanised JOVI-1 antibody, reference antibody) (antibody, V domains shown)
VH: B1 VH with K28T, F32Y, N100A, L102Y, M103N
VL: B1 VL with R35N
notes: Tested in IgG format and captured by anti-human IgG in SPR; also called aTRBC1; anti-TRBC1 antibody hJOVI-1
B7: Mut14 (antibody, V domains shown)
VH: B1 VH with L102Y, M103N, A107S
VL: B1 VL with R35N
notes: Variant of hJOVI-1; IgG format; also called VH T28K, Y32F, A100N, A107S
B8: Mut12 (antibody, V domains shown)
VH: B1 VH with L102Y, M103L
VL: B1 VL with R35K
notes: Variant of hJOVI-1; captured by anti-human IgG in SPR; also called VH T28K, Y32F, A100N, N103L; VL N35K
B9: Mut13 (antibody, V domains shown)
VH: B1 VH with L102Y, M103N
VL: B1 VL with R35K
notes: Variant of hJOVI-1; captured by anti-human IgG in SPR; also called VH T28K, Y32F, A100N; VL N35K
B10: Mut5 (antibody, V domains shown)
VH: B1 VH with K28T, N100A, L102Y, M103N
VL: B1 VL with R35N
notes: Variant of hJOVI-1; captured by anti-human IgG in SPR; also called VH Y32F
B11: Mut9 (antibody, V domains shown)
VH: B1 VH with G26P, F32Y, N100A, L102Y, M103N
VL: B1 VL with R35N
notes: Variant of hJOVI-1; captured by anti-human IgG in SPR; also called VH G26P, T28K
B12: Mut8 (antibody, V domains shown)
VH: B1 VH with K28T, G31S, F32Y, N100A, L102Y, M103N
VL: B1 VL with R35N
notes: Variant of hJOVI-1; captured by anti-human IgG in SPR; also called VH G31S
B13: Mut10 (antibody, V domains shown)
VH: B1 VH with K28T, F32Y, N100A, L102M, M103N
VL: B1 VL with R35N
notes: Variant of hJOVI-1; captured by anti-human IgG in SPR; also called VH Y102M
B14: Mut4 (RFN) (antibody, V domains shown)
VH: B1 VH with K28R, L102Y, M103N
VL: B1 VL with R35N
notes: Variant of hJOVI-1; captured by anti-human IgG in SPR

Residue numbers refer to the chain shown, from its start. Numbers in names are those of the source.

T3 sequence (P01850 1-129 limits assumed): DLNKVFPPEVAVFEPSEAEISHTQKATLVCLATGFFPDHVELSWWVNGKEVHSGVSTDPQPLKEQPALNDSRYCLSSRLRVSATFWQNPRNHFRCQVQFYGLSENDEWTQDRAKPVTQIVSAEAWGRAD
T4 sequence (A0A5B9 1-129 limits assumed): as the sequence (P01850 1-129 limits assumed) above, with N3K, K4N, E9K, F36Y counted along it

The first assay concerns the target T1, TRBC1 on HPB-ALL cells engineered to express only TRBC1 (human, UniProt P01850 1-176).
T1 construct: whole, on cells; also called HPB-ALL TRBC1; HPB-ALL TRBC1+
The experiment in a line: internalisation (9h), pHrodo green MFI, flow cytometry. (Flow cytometry measures light scatter and fluorescence of single cells or particles in a stream.)
Turning to B1, the binding result is given as “no binding (tested: not printed on the sheet)”.
In the case of B2, the binding result is “no binding (tested: not printed on the sheet)”.

Another assay concerns the target T2, TRBC2 on HPB-ALL cells engineered to express only TRBC2 (human, UniProt A0A5B9 1-178).
T2 construct: whole, on cells; also called HPB-ALL TRBC2; HPB-ALL TRBC2+
The description is as above.
Turning to B3, the binding result was “no binding (tested: not printed on the sheet)”.

The target in a further assay is T2, TRBC2 on HPB-ALL cells engineered to …. Briefly: internalisation of pHrodo green conjugated antibody, flow cytometry.
In the case of B4, the binding result was “no binding”.

Another assay has as its target T1, TRBC1 on HPB-ALL cells engineered to …. Briefly: internalisation of pHrodo red conjugated antibody, flow cytometry, 24 h. As for the experimental part:
(§1) Cell uptake of the anti-TRBC1 antibody hJOVI-1 and the anti-TRBC2 antibody KFN was tested on HPB-ALL cells that were engineered to express only TRBC1, only TRBC2, or which were the TRBC was knocked-out (KO). To this aim, the pH-sensitive fluorophore
(§2) Zenon pHrodo iFL red (Thermo Scientific), which has a 560/585 nm spectrum, was used to conjugate hJOVI-1 and KFN in IgG format following the manufacturer's recommendations. The irrelevant anti-HEL antibody was also conjugated for use as control. The conjugated antibodies were incubated with HPB-ALL TRBC1, HPB-ALL TRBC2 and HPB-ALL KO cells for 24 h at 37° C., 5% CO2. Test antibodies hJOVI-1, KFN, and anti-HEL were applied at 5 μg/ml in a 96-well plate with 5×10⁴ cells/well in 100 μl of RPMI 10% FBS. After 24 h, cells were washed, harvested and stained with 1:100 LIVE/DEAD™ Fixable Violet Dead Cell Stain (Thermofisher) for 10 min before being analysed by flow cytometry using a Fortessa flow cytometer (BD).
Consider B5, for which the binding result is recorded as “no binding (tested: 5 µg/ml)”.

For the next assay, the target named is T2, TRBC2 on HPB-ALL cells engineered to …. The assay is described as above. Here is the method:
as §1, §2
Regarding B6, the binding result is “no binding (tested: 5 µg/ml)”.

A further assay addresses T3, TRBC1 (T cell receptor beta-chain constant domain 1), interaction partner protein injected in SPR (human, UniProt P01850 1-129, limits assumed).
T3 construct: also called TCR beta constant region 1
Briefly: SPR (Biacore T200), antibody captured on anti-human IgG chip, TRBC1 injected, 25 C, 1:1 Langmuir fit. As for the experimental part: (§3) Surface plasmon resonance (SPR) was carried out on several of antibody variants of hJOVI-1 to ascertain affinity, association and dissociation rates. The sequence details of these variants Mut1 to Mut15 used in the Examples section of the present patent application are included in Tables 1 and 2. These anti-TRBC antibody variants have specificity for either TRBC1 or TRBC2.
(§4) SPR experiments were performed using a Biacore T200 instrument using HBSP1 as the running and dilution buffer (GE Healthcare BioSciences). BIAevaluation software version 2.0 (GE Healthcare) was used for data processing. For determination of the binding kinetics, mouse anti-human IgG (GE Healthcare) was covalently coupled to a CM5 Sensor Chip (GE Healthcare). Anti-TRBC1 or anti-TRBC2 antibodies were captured onto the flow cell, and various concentrations of interaction partner protein (TRBC1 or TRBC2) were injected over the flow cell at a flow rate of […] at a temperature of 25° C. A double reference subtraction was performed using buffer alone. Kinetic rate constants were obtained by curve fitting according to a 1:1 Langmuir binding model.
(In SPR one partner is held on a chip, and binding of the other changes the refractive index at the surface.)
Regarding B6, the Kd (as a rule, the equilibrium constant for the complex coming apart) was 2.57 nM; the koff (commonly a measure of how fast the partners let go of each other) turned out to be 0.000618 s⁻¹; the association rate constant (kon) (usually the second-order rate constant of association) came out at 238000 M⁻¹ s⁻¹.
B7 had a Kd of 3590 nM, a koff of 0.323 s⁻¹ and a kon of 90000 M⁻¹ s⁻¹.
B8: binding was put at a Kd of 707 nM, the koff was found to be 0.0613 s⁻¹ and the kon turned out to be 86800 M⁻¹ s⁻¹.
Molecule B9 had a Kd of 1000 nM, a koff of 0.108 s⁻¹ and a kon of 107000 M⁻¹ s⁻¹.
In the case of B10, the Kd is 426 nM, the koff was determined as 0.0457 s⁻¹ and the kon was determined as 107000 M⁻¹ s⁻¹.
Regarding B11, binding was put at a Kd of 28.9 nM, the koff came to 0.00248 s⁻¹ and the kon came out at 85800 M⁻¹ s⁻¹.
For B12, binding was put at a Kd of 7.69 nM, the koff is 0.000756 s⁻¹ and the kon is 98300 M⁻¹ s⁻¹.
Molecule B4 registered a Kd of 203 nM, a koff of 0.0177 s⁻¹ and a kon of 87300 M⁻¹ s⁻¹.
Take B13: the Kd is 90 nM, the koff came out at 0.00951 s⁻¹ and the kon was 106000 M⁻¹ s⁻¹.

The next assay has as its target T4, TRBC2 (T cell receptor beta-chain constant domain 2), interaction partner protein injected in SPR (human, UniProt A0A5B9 1-129, limits assumed).
T4 construct: the construct is not described; also called TCR beta constant region 2
The experiment in a line: SPR (Biacore T200), antibody captured on anti-human IgG chip, TRBC2 injected, 25 C, 1:1 Langmuir fit. As for the experimental part:
as §3, §4
On to B5, for which binding was characterised by a dissociation constant (Kd) of 479 nM, the koff amounted to 0.0386 s⁻¹ and the on-rate constant (kon) was 83000 M⁻¹ s⁻¹.
On to B14, for which the Kd was found to be 582 nM, the koff amounted to 0.045 s⁻¹ and the kon was determined as 77600 M⁻¹ s⁻¹.
B2 came in with a Kd of 1900 nM, a koff of 0.0832 s⁻¹ and a kon of 43800 M⁻¹ s⁻¹.
